Reference: US20210388087A1 (Chugai, published 2021)

T1: Human CD3eg linker (human)
T1 construct: Single chain: epsilon and gamma subunits of human CD3 joined by a 29-mer linker, Flag-tag at the C-terminus; also called recombinant human CD3
T1 chain: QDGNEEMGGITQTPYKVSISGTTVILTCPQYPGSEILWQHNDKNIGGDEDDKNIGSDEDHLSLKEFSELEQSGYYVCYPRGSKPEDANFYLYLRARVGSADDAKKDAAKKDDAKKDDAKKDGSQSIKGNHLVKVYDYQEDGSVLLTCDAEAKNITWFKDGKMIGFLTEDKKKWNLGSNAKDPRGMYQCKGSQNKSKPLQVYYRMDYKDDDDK


Target: T1, Human CD3eg linker
Experiment: Biacore SPR, vs template H183/L072

fold change of affinity [fold] | Binder
0 | H183/L072 VH I51N (antibody, name in Kabat numbering, V domains shown) VH: QVQLVESGGGLVQPGRSLRLSCAASGFTFSNAWMHWVRQAPGKGLEWVAQNKDKGNAYAAYYAPSVKGRFTISRDDSKNSIYLQMNSLKTEDTAVYYCHYVHYASASTVLPAFGVDAWGQGTTVTVSS VL: DIVMTQSPLSLPVTPGEPASISCQASQELVHMNRNTYLHWYQQKPGQAPRLLIYKVSNRFPGVPDRFSGSGSGTDFTLKISRVEAEDVGVYYCAQGTSVPFTFGQGTKLEIK
0 | H183/L072 VH I51W (antibody, name in Kabat numbering, V domains shown) VH: QVQLVESGGGLVQPGRSLRLSCAASGFTFSNAWMHWVRQAPGKGLEWVAQWKDKGNAYAAYYAPSVKGRFTISRDDSKNSIYLQMNSLKTEDTAVYYCHYVHYASASTVLPAFGVDAWGQGTTVTVSS VL: DIVMTQSPLSLPVTPGEPASISCQASQELVHMNRNTYLHWYQQKPGQAPRLLIYKVSNRFPGVPDRFSGSGSGTDFTLKISRVEAEDVGVYYCAQGTSVPFTFGQGTKLEIK
0 | H183/L072 VH K52P (antibody, name in Kabat numbering, V domains shown) VH: QVQLVESGGGLVQPGRSLRLSCAASGFTFSNAWMHWVRQAPGKGLEWVAQIPDKGNAYAAYYAPSVKGRFTISRDDSKNSIYLQMNSLKTEDTAVYYCHYVHYASASTVLPAFGVDAWGQGTTVTVSS VL: DIVMTQSPLSLPVTPGEPASISCQASQELVHMNRNTYLHWYQQKPGQAPRLLIYKVSNRFPGVPDRFSGSGSGTDFTLKISRVEAEDVGVYYCAQGTSVPFTFGQGTKLEIK
0.6 | H183/L072 VH K52M (antibody, name in Kabat numbering, V domains shown) VH: QVQLVESGGGLVQPGRSLRLSCAASGFTFSNAWMHWVRQAPGKGLEWVAQIMDKGNAYAAYYAPSVKGRFTISRDDSKNSIYLQMNSLKTEDTAVYYCHYVHYASASTVLPAFGVDAWGQGTTVTVSS VL: DIVMTQSPLSLPVTPGEPASISCQASQELVHMNRNTYLHWYQQKPGQAPRLLIYKVSNRFPGVPDRFSGSGSGTDFTLKISRVEAEDVGVYYCAQGTSVPFTFGQGTKLEIK
0 | H183/L072 VH K52H (antibody, name in Kabat numbering, V domains shown) VH: QVQLVESGGGLVQPGRSLRLSCAASGFTFSNAWMHWVRQAPGKGLEWVAQIHDKGNAYAAYYAPSVKGRFTISRDDSKNSIYLQMNSLKTEDTAVYYCHYVHYASASTVLPAFGVDAWGQGTTVTVSS VL: DIVMTQSPLSLPVTPGEPASISCQASQELVHMNRNTYLHWYQQKPGQAPRLLIYKVSNRFPGVPDRFSGSGSGTDFTLKISRVEAEDVGVYYCAQGTSVPFTFGQGTKLEIK
0 | H183/L072 VH I51Y (antibody, name in Kabat numbering, V domains shown) VH: QVQLVESGGGLVQPGRSLRLSCAASGFTFSNAWMHWVRQAPGKGLEWVAQYKDKGNAYAAYYAPSVKGRFTISRDDSKNSIYLQMNSLKTEDTAVYYCHYVHYASASTVLPAFGVDAWGQGTTVTVSS VL: DIVMTQSPLSLPVTPGEPASISCQASQELVHMNRNTYLHWYQQKPGQAPRLLIYKVSNRFPGVPDRFSGSGSGTDFTLKISRVEAEDVGVYYCAQGTSVPFTFGQGTKLEIK
0 | H183/L072 VH I51Q (antibody, name in Kabat numbering, V domains shown) VH: QVQLVESGGGLVQPGRSLRLSCAASGFTFSNAWMHWVRQAPGKGLEWVAQQKDKGNAYAAYYAPSVKGRFTISRDDSKNSIYLQMNSLKTEDTAVYYCHYVHYASASTVLPAFGVDAWGQGTTVTVSS VL: DIVMTQSPLSLPVTPGEPASISCQASQELVHMNRNTYLHWYQQKPGQAPRLLIYKVSNRFPGVPDRFSGSGSGTDFTLKISRVEAEDVGVYYCAQGTSVPFTFGQGTKLEIK
0 | H183/L072 VH K52D (antibody, name in Kabat numbering, V domains shown) VH: QVQLVESGGGLVQPGRSLRLSCAASGFTFSNAWMHWVRQAPGKGLEWVAQIDDKGNAYAAYYAPSVKGRFTISRDDSKNSIYLQMNSLKTEDTAVYYCHYVHYASASTVLPAFGVDAWGQGTTVTVSS VL: DIVMTQSPLSLPVTPGEPASISCQASQELVHMNRNTYLHWYQQKPGQAPRLLIYKVSNRFPGVPDRFSGSGSGTDFTLKISRVEAEDVGVYYCAQGTSVPFTFGQGTKLEIK
0 | H183/L072 VH K52I (antibody, name in Kabat numbering, V domains shown) VH: QVQLVESGGGLVQPGRSLRLSCAASGFTFSNAWMHWVRQAPGKGLEWVAQIIDKGNAYAAYYAPSVKGRFTISRDDSKNSIYLQMNSLKTEDTAVYYCHYVHYASASTVLPAFGVDAWGQGTTVTVSS VL: DIVMTQSPLSLPVTPGEPASISCQASQELVHMNRNTYLHWYQQKPGQAPRLLIYKVSNRFPGVPDRFSGSGSGTDFTLKISRVEAEDVGVYYCAQGTSVPFTFGQGTKLEIK
0.4 | H183/L072 VH I51S (antibody, name in Kabat numbering, V domains shown) VH: QVQLVESGGGLVQPGRSLRLSCAASGFTFSNAWMHWVRQAPGKGLEWVAQSKDKGNAYAAYYAPSVKGRFTISRDDSKNSIYLQMNSLKTEDTAVYYCHYVHYASASTVLPAFGVDAWGQGTTVTVSS VL: DIVMTQSPLSLPVTPGEPASISCQASQELVHMNRNTYLHWYQQKPGQAPRLLIYKVSNRFPGVPDRFSGSGSGTDFTLKISRVEAEDVGVYYCAQGTSVPFTFGQGTKLEIK
1.1 | H183/L072 VH I51V (antibody, name in Kabat numbering, V domains shown) VH: QVQLVESGGGLVQPGRSLRLSCAASGFTFSNAWMHWVRQAPGKGLEWVAQVKDKGNAYAAYYAPSVKGRFTISRDDSKNSIYLQMNSLKTEDTAVYYCHYVHYASASTVLPAFGVDAWGQGTTVTVSS VL: DIVMTQSPLSLPVTPGEPASISCQASQELVHMNRNTYLHWYQQKPGQAPRLLIYKVSNRFPGVPDRFSGSGSGTDFTLKISRVEAEDVGVYYCAQGTSVPFTFGQGTKLEIK
0 | H183/L072 VH I51P (antibody, name in Kabat numbering, V domains shown) VH: QVQLVESGGGLVQPGRSLRLSCAASGFTFSNAWMHWVRQAPGKGLEWVAQPKDKGNAYAAYYAPSVKGRFTISRDDSKNSIYLQMNSLKTEDTAVYYCHYVHYASASTVLPAFGVDAWGQGTTVTVSS VL: DIVMTQSPLSLPVTPGEPASISCQASQELVHMNRNTYLHWYQQKPGQAPRLLIYKVSNRFPGVPDRFSGSGSGTDFTLKISRVEAEDVGVYYCAQGTSVPFTFGQGTKLEIK
0 | H183/L072 VH K52G (antibody, name in Kabat numbering, V domains shown) VH: QVQLVESGGGLVQPGRSLRLSCAASGFTFSNAWMHWVRQAPGKGLEWVAQIGDKGNAYAAYYAPSVKGRFTISRDDSKNSIYLQMNSLKTEDTAVYYCHYVHYASASTVLPAFGVDAWGQGTTVTVSS VL: DIVMTQSPLSLPVTPGEPASISCQASQELVHMNRNTYLHWYQQKPGQAPRLLIYKVSNRFPGVPDRFSGSGSGTDFTLKISRVEAEDVGVYYCAQGTSVPFTFGQGTKLEIK
0.2 | H183/L072 VH I51T (antibody, name in Kabat numbering, V domains shown) VH: QVQLVESGGGLVQPGRSLRLSCAASGFTFSNAWMHWVRQAPGKGLEWVAQTKDKGNAYAAYYAPSVKGRFTISRDDSKNSIYLQMNSLKTEDTAVYYCHYVHYASASTVLPAFGVDAWGQGTTVTVSS VL: DIVMTQSPLSLPVTPGEPASISCQASQELVHMNRNTYLHWYQQKPGQAPRLLIYKVSNRFPGVPDRFSGSGSGTDFTLKISRVEAEDVGVYYCAQGTSVPFTFGQGTKLEIK
0 | H183/L072 VH K52E (antibody, name in Kabat numbering, V domains shown) VH: QVQLVESGGGLVQPGRSLRLSCAASGFTFSNAWMHWVRQAPGKGLEWVAQIEDKGNAYAAYYAPSVKGRFTISRDDSKNSIYLQMNSLKTEDTAVYYCHYVHYASASTVLPAFGVDAWGQGTTVTVSS VL: DIVMTQSPLSLPVTPGEPASISCQASQELVHMNRNTYLHWYQQKPGQAPRLLIYKVSNRFPGVPDRFSGSGSGTDFTLKISRVEAEDVGVYYCAQGTSVPFTFGQGTKLEIK
0 | H183/L072 VH K52L (antibody, name in Kabat numbering, V domains shown) VH: QVQLVESGGGLVQPGRSLRLSCAASGFTFSNAWMHWVRQAPGKGLEWVAQILDKGNAYAAYYAPSVKGRFTISRDDSKNSIYLQMNSLKTEDTAVYYCHYVHYASASTVLPAFGVDAWGQGTTVTVSS VL: DIVMTQSPLSLPVTPGEPASISCQASQELVHMNRNTYLHWYQQKPGQAPRLLIYKVSNRFPGVPDRFSGSGSGTDFTLKISRVEAEDVGVYYCAQGTSVPFTFGQGTKLEIK
0 | H183/L072 VH K52A (antibody, name in Kabat numbering, V domains shown) VH: QVQLVESGGGLVQPGRSLRLSCAASGFTFSNAWMHWVRQAPGKGLEWVAQIADKGNAYAAYYAPSVKGRFTISRDDSKNSIYLQMNSLKTEDTAVYYCHYVHYASASTVLPAFGVDAWGQGTTVTVSS VL: DIVMTQSPLSLPVTPGEPASISCQASQELVHMNRNTYLHWYQQKPGQAPRLLIYKVSNRFPGVPDRFSGSGSGTDFTLKISRVEAEDVGVYYCAQGTSVPFTFGQGTKLEIK
0 | H183/L072 VH K52F (antibody, name in Kabat numbering, V domains shown) VH: QVQLVESGGGLVQPGRSLRLSCAASGFTFSNAWMHWVRQAPGKGLEWVAQIFDKGNAYAAYYAPSVKGRFTISRDDSKNSIYLQMNSLKTEDTAVYYCHYVHYASASTVLPAFGVDAWGQGTTVTVSS VL: DIVMTQSPLSLPVTPGEPASISCQASQELVHMNRNTYLHWYQQKPGQAPRLLIYKVSNRFPGVPDRFSGSGSGTDFTLKISRVEAEDVGVYYCAQGTSVPFTFGQGTKLEIK
0 | H183/L072 VH I51R (antibody, name in Kabat numbering, V domains shown) VH: QVQLVESGGGLVQPGRSLRLSCAASGFTFSNAWMHWVRQAPGKGLEWVAQRKDKGNAYAAYYAPSVKGRFTISRDDSKNSIYLQMNSLKTEDTAVYYCHYVHYASASTVLPAFGVDAWGQGTTVTVSS VL: DIVMTQSPLSLPVTPGEPASISCQASQELVHMNRNTYLHWYQQKPGQAPRLLIYKVSNRFPGVPDRFSGSGSGTDFTLKISRVEAEDVGVYYCAQGTSVPFTFGQGTKLEIK
0 | H183/L072 VH K52N (antibody, name in Kabat numbering, V domains shown) VH: QVQLVESGGGLVQPGRSLRLSCAASGFTFSNAWMHWVRQAPGKGLEWVAQINDKGNAYAAYYAPSVKGRFTISRDDSKNSIYLQMNSLKTEDTAVYYCHYVHYASASTVLPAFGVDAWGQGTTVTVSS VL: DIVMTQSPLSLPVTPGEPASISCQASQELVHMNRNTYLHWYQQKPGQAPRLLIYKVSNRFPGVPDRFSGSGSGTDFTLKISRVEAEDVGVYYCAQGTSVPFTFGQGTKLEIK
